Laboratory results reported in article PMC9817077, “Simple, Reliable Protocol for High-Yield Solubilization of Seedless Amyloid-β Monomer” (ACS Chemical Neuroscience, 2022).

Experiments:
[1] = AF4-MALS fractionation of re-solubilized samples; format: physicochemical
Method: Samples were analyzed using an AF4 frit inlet (FI) channel equilibrated in 1 mM NaOH, with a 250 μm spacer and a 1 kDa PES membrane, and in-line UV (280 nm; Shimadzu, U.K.), MALS, and RI detectors. Except where otherwise stated, the channel, associated pumps, autosampler, and detectors were purchased or loaned from Postnova Analytics (Landsberg am Lech, Germany). The RI detector was purged following equilibration, and the UV and RI detectors were then zeroed. […] The sample was separated in a 1 mM NaOH mobile phase, with 0.2 mL/min TIP and detector flow; the focus and cross-flow rates were also matched to one another and varied throughout the run.
Data processing and estimation of sample concentration, molecular weight, and recovery were carried out in the AF2000 Control software (Postnova Analytics, Landsberg am Lech, Germany), with additional data processing in GraphPad Prism version 8.3.0. […] We note that, although there is an isosbestic point nearby at 276 nm, the relatively rapid decrease in tyrosine absorbance and increase in tyrosinate absorbance to the right of this point mean that deprotonation still has a significant effect on the extinction coefficient at 280 nm. […] As a result, the tyrosine/tyrosinate extinction coefficient is more appropriate for analysis of the monomer and oligomer fractions in our AF4-MALS runs. Molecular weight values were calculated by fitting models to the UV280 and MALS signals. The molecular weights in Figure 2e were obtained using a fourth-degree Berry fit from 2.0 to 7.0 min, a linear Zimm fit from 7.0 to 12.5 min, and a third-degree Berry fit from 28.0 to 50.0 min. The molecular weights in Figure 3c were obtained using a linear Zimm fit. […] This summation tends toward an exact integral as Δt → 0, and the experimental parameter of Δt = 0.12 min was sufficiently small for the approximation to be reasonably accurate. The probability density function p(M), which gives the probability density of species with mass M, can be calculated as p(M) = dP(Mw ≤ M)/dM. However, when presenting the data on a logarithmic axis, peaks in the probability density function are horizontally stretched at low M and horizontally compressed at high M, meaning that the peak area is no longer proportional to the mass of material.

[2] = LC–MS check for chemical modification at high pH; format: physicochemical; conditions: 50 mM NaOH
[3] = cited from earlier work
Excerpt: The concentration dependence is significant as it reflects the ... || The nature and reaction order of the dominant processes responsible for generating fibrils can be inferred from the scaling exponent γ, which relates the polymerization half-time to the initial monomer concentration, τhalf ∝ m0^γ. If secondary processes are negligible so that primary nucleation dominates, then γ = −nc/2, where nc is the effective order of primary nucleation.[91],[92] If most new fibrils are formed by fragmentation of existing fibrils, then γ = −1/2.[88],[89]

[4] = 50 mM NaOH, 20 μg injected, mean ± SD
[5] = 50 mM NaOH, geometric average Mw elugram, ROI 3.3–20.0 min
[6] = 5 min sonication in 50 mM NaOH (pH ≈ 12.5), 20 μg injected, 1 mM NaOH mobile phase, UV280, mean ± SD, n = 12
[7] = re-solubilized in 10 mM NaOH without HFIP, 20 μg injected, 1 mM NaOH mobile phase, UV280, mean ± SD

Aβ(1-42): Ultrapure recombinant Aβ(1-42) purchased from rPeptide, lyophilized from HFIP; disordered amyloid-forming peptide
material eluting in peak 2 ([1]; 10 mM NaOH preparations with higher pH (≳10.0) after re-solubilization, 20 μg injected, mean ± SD): 18.30 ± 1.17 µg | material eluting in peak 2 ([1]; 10 mM NaOH preparations with more neutral pH (≲8.0) after re-solubilization, 20 μg injected, mean ± SD): 7.62 ± 2.20 µg | recovery in peak 1 ([1]; 10 mM NaOH preparations, more neutral samples (≲8.0), 20 μg injected, mean ± SD): 6.32 ± 6.62 µg | fraction of sample eluting in peak 3 ([1]; 10 mM NaOH, relative to injected mass of 20 μg, ± SD): ~11 ± 5% | recovery from the first two regions of interest (1.5–30.0 min) [1, 4]: 19.90 ± 0.99 µg | total recovery across all three regions of interest [1, 4]: 20.62 ± 1.19 µg | sample eluting in fractions suggestive of dimer or larger [1, 5]: 12% | sample eluting in fractions with Mw closer to the monomer [1, 5]: 88% | Mw of eluting material from 4.0 to 5.0 min ([1]; 50 mM NaOH, geometric mean of 10 concordant Mw elugrams, linear Zimm fit): ~4500 Da | major peak of the molecular weight distribution ([1]; 50 mM NaOH, sample eluting 3.3–20.0 min, from average elugram and UV280): ~4500 Da | material eluting in the peak 1 region (1.5–3.3 min) [1, 6]: 0.31 ± 0.17 µg | material eluting in the peak 2 region (3.3–30.0 min) [1, 6]: 19.59 ± 0.90 µg | material eluting in the peak 3 region (>30 min), nominal [1, 6]: 0.72 ± 0.32 µg | material eluting in peak 1 (1.5–3.3 min) [1, 7]: 3.99 ± 5.92 µg | material eluting in peak 2 (3.3–30.0 min), monomer and small oligomer [1, 7]: 11.73 ± 5.70 µg | material eluting in peak 3 (30.0–60.0 min) [1, 7]: 2.11 ± 0.95 µg | total material eluted in the AF4 run ([1]; re-solubilized in 10 mM NaOH, 20 μg injected, mean ± SD): 17.82 ± 6.68 µg | difference between mass spectra of samples sonicated for 5 and 30 min [2]: no obvious difference | scaling exponent γ ([3]; high-quality in-house recombinant preparations, same experimental conditions): ≈ −1.3 | fibrillization half-time τhalf ([3]; in-house recombinant preparations, ref Silvers et al. 75): ≈ 2000 s
